As a reminder, the stoichiometry N is the number of molecules, sites or subunits per partner or assembly. The Km is the substrate concentration at which the rate is half of its maximum. The term kcat denotes the maximal rate divided by the concentration of active sites. For orientation: kcat/Km means the turnover number divided by the Michaelis constant.

This note sets out measurements from paper PMC8040287, “Characterization of two enzymes from Psychrobacter cryohalolentis that are required for the biosynthesis of an unusual diacetamido-D-sugar” (The Journal of Biological Chemistry, 2021).

One series deals with T1, Pcryo_0638 (Psychrobacter cryohalolentis, UniProt Q1QD32).
T1 construct: full length; N-terminal His tag removed with rTEV; expressed in E. coli Rosetta2(DE3); dimer; residues Ala 5 to Asn 399 seen in crystal
T1 sequence (Q1QD32 1-400): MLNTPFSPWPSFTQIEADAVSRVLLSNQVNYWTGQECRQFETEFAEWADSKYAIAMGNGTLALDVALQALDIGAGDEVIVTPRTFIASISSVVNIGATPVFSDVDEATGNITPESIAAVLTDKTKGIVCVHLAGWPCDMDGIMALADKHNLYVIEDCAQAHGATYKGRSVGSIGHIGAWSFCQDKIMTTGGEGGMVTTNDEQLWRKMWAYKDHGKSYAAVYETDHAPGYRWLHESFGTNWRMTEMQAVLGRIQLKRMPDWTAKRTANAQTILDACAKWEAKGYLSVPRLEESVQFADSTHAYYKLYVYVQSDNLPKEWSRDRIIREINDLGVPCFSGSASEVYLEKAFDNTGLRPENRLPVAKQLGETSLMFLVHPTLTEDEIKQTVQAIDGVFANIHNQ
Briefly: X-ray crystal structure, […] Å. The class given is binding. The following applies: pH 8.0.

For series [1], the target named is Pcryo_0637, N-acetyltransferase from Psychrobacter cryohalolentis K5T, C-terminally His-tagged form used for crystallization (Psychrobacter cryohalolentis K5T (ATCC BAA-1226)) (UniProt Q1QD33). Briefly: crystal structure; hanging drop, room temperature, 23-26% 2-methyl-2,4-pentanediol, 100 mM HEPES pH 7.5, with CoA or acetyl-CoA and UDP or UDP-sugar ligands (four complexes); space group R3, one subunit in the asymmetric unit, trimer formed about the crystallographic triad; 1.3-1.55 Å.

Substrate in the series “purified protein”: CC(=O)N[C@H]1[C@@H](OP(=O)(O)OP(=O)(O)OC[C@H]2O[C@@H](n3ccc(=O)[nH]c3=O)[C@H](O)[C@@H]2O)O[C@H](C)C(=O)[C@@H]1O
Briefly: purified protein. In kind it is biochemical, Psychrobacter cryohalolentis. The following applies: 50 mM HEPPS pH 8.0, 0.5 mM PLP, 40 mM sodium glutamate.

Series [2] deals with the molecule itself. Briefly: crystal structure; hanging drop, room temperature, 18-22% PEG 8000, 200 mM tetramethylammonium chloride, 100 mM HEPPS pH 8.0, with 1 mM PLP and 5 mM UDP-2-acetamido-4-amino-2,4,6-trideoxy-D-glucose; space group P1, one dimer in the asymmetric unit; 1.3 Å.
Substrate in series [3]: CC(=O)N[C@H]1[C@@H](OP(=O)(O)OP(=O)(O)OC[C@H]2O[C@@H](n3ccc(=O)[nH]c3=O)[C@H](O)[C@@H]2O)O[C@H](C)[C@@H](N)[C@@H]1O
Briefly: discontinuous HPLC assay of acetylated product, Michaelis-Menten fit. The following applies: 50 mM HEPPS pH 8.0, 1.5 mM acetyl-CoA, structure with CoA solved on C-terminally tagged protein. The class given is biochemical, Psychrobacter cryohalolentis. The text has this:
(§1) discontinuous HPLC assay of acetylated product, Michaelis-Menten fit on Pcryo_0637

Substrate in series [4]: CC(=O)SCCNC(=O)CCNC(=O)[C@H](O)C(C)(C)COP(=O)(O)OP(=O)(O)OC[C@H]1O[C@@H](n2cnc3c(N)ncnc32)[C@H](O)[C@@H]1OP(=O)(O)O
Described as above. In kind it is biochemical, Psychrobacter cryohalolentis. Conditions: 50 mM HEPPS pH 8.0, 8 mM UDP-2-acetamido-4-amino-2,4,6-trideoxy-D-glucose, structure with UDP solved on C-terminally tagged protein.
Text: as §1

For the molecule `Cc1ncc(COP(=O)(O)O)c(C=O)c1O` [PLP], the “X-ray crystal structure, 1.3 Å” value on Pcryo_0638 (covalent, external aldimine with the aminosugar product, half-occupancy) was “a mixture of the external aldimine and PMP was subsequently built into the electron density”.
As to “Pcryo_0637, N-acetyltransferase from Psychrobacter cryohalolentis K5T, C-terminally His-tagged form used for crystallization (from UniProt Q1QD33 1-219) (enzyme)”, the stoichiometry N in series [1] turned out to be 3.
As to `Cc1ncc(COP(=O)(O)O)c(CN)c1O` [PMP], the “X-ray crystal structure, 1.3 Å” value on Pcryo_0638 (half-occupancy beside the external aldimine) is “a mixture of the external aldimine and PMP was subsequently built into the electron density”.

B1: Pcryo_0638, PLP-dependent aminotransferase from Psychrobacter cryohalolentis K5T (enzyme)
chain: T1 sequence (Q1QD32 1-400)
notes: Pcryo_0638, aminotransferase encoded by gene 0638 of Psychrobacter cryohalolentis K5T (ATCC BAA-1226); electron density continuous from Ala 5 to Asn 399; also called protein encoded by the 0638 gene; Pyro_0638; source: E. coli Rosetta2(DE3), purified (Ni-NTA, tag removed with rTEV protease); not shown: polyhistidine tag, N-terminal, cleaved
As to B1, in the series “purified protein”, the Km came out at 290 ± 40 µM, the kcat was 1.9 ± 0.2 s⁻¹ and the kcat/Km worked out at 6600 ± 700 M⁻¹ s⁻¹. For the same molecule, the “stoichiometry N” value in series [2] is 2.

B2: Pcryo_0637 (Psychrobacter cryohalolentis K5) (protein)
chain: MSKVFAVYGASGCGRSLMPVANEQLRILEGDTDSQIVFIDDALDDNITVNGYTAMNYTKFKSIKNDDKFVLIAIANSSIRQKIADKLVKDGISLWTVQGMTTLIMDEVSIDAGAALSPFVTIAANVTIGKCFHANLYSYVEHDCIIGDYVTFAPRVSCNGNIHIHDHAYIGTGAVIKQGTPDKPLIIGKGAIVGMGAVVTKEVPAGAVVIGNPARLLNK
notes: full length; kinetics with N-terminal His tag removed by rTEV; crystals with noncleavable C-terminal tag LEHHHHHH; expressed in E. coli Rosetta2(DE3); trimer; domains Ser 2-Ser 93 and Leu 94-Ala 218
For B2, in series [3], the Km stood at 620 ± 50 µM, the kcat worked out at 545 ± 40 s⁻¹ and the kcat/Km stood at 880000 ± 90000 M⁻¹ s⁻¹. In series [4], the Michaelis constant (Km) turned out to be 70 ± 8 µM, the catalytic constant (kcat) was 1900 ± 200 s⁻¹ and the kcat/Km is 2.7e+07 ± 3e+06 M⁻¹ s⁻¹.
